# Measurements published in US20060052582A1, “Identification of inhibitors of mitosis” (priority 2002, published 2006).
# Tested on: Nek6
# Assay: Activity and phosphorylation of GST Nek6 coexpressed with Nercc1 noncatalytic fragment in HEK293 cells
# Type: cell-based, human
# Description: GST Nek6 was coexpressed with increasing quantities of FLAG Nercc1 (347-979). The kinase activity of GST Nek6 was measured using MBP as substrate.
# GST Nek6 was cotransfected in HEK293 cells with increasing amounts of FLAG Nercc1 (347-979), and immunoblots of the extracts were carried out using the indicated antibodies.
# Nek6, sequence (Q9HC98 whole entry, the tested form may be a part): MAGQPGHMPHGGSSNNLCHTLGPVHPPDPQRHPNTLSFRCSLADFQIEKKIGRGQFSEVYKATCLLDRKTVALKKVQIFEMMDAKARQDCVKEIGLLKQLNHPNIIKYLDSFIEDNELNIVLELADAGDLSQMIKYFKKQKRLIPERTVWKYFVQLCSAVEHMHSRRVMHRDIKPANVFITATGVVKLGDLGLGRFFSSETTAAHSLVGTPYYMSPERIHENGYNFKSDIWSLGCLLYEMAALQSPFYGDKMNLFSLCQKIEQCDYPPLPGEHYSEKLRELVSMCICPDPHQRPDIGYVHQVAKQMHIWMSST
molecule,measurement,setting,value
"FLAG Nercc1 (347-979): FLAG-tagged polypeptide consisting of Nercc1 amino acids 347-979 of SEQ ID NO:2 (protein, listed as Homo sapiens, FLAG tag) SEVYIWGGGKSTPQKLDVIKSGCSARQVCAGNTHFAVVTVEKELYTWVNMQGGTKLHGQLGHGDKASYRQPKHVEKLQGKAIHQVSCGDDFTVCVTDEGQLYAFGSDYYGCMGVDKVAGPEVLEPMQLNFFLSNPVEQVSCGDNHVVVLTRNKEVYSWGCGEYGRLGLDSEEDYYTPQKVDVPKALIIVAVQCGCDGTFLLTQSGKVLACGLNEFNKLGLNQCMSGIINHEAYHEVPYTTSFTLAKQLSFYKIRTIAPGKTHTAAIDERGRLLTFGCNKCGQLGVGNYKKRLGINLLGGPLGGKQVIRVSCGDEFTIAATDDNHIFAWGNGGNGRLAMTPTERPHGSDICTSWPRPIFGSLHHVPDLSCRGWHTILIVEKVLNSKTIRSNSSGLSIGTVFQSSSPGGGGGGGGGEEEDSQQESETPDPSGGFRGTMEADRGMEGLISPTEAMGNSNGASSSCPGWLRKELENAEFIPMPDSPSPLSAAFSESEKDTLPYEELQGLKVASEAPLEHKPQVEASSPRLNPAVTCAGKGTPLTPPACACSSLQVEVERLQGLVLKCLAEQQKLQQENLQIFTQLQKLNKKLEGGQQVGMHSKGTQTAKEEMEMDPKPDLDSDSGCLLGTDSCRPSL",effect on Nek6 activation loop phosphorylation,cotransfected in HEK293 cells,suppresses
same,effect on kinase activity of coexpressed GST Nek6,"overexpression in vivo, MBP as substrate",inhibited
